T1: monkey C5-mmh (monkey, UniProt P01031 19-1676 (human entry), limits assumed)
T1 construct: recombinant, with C-terminal myc-myc-hexahistidine tag
T1 chain: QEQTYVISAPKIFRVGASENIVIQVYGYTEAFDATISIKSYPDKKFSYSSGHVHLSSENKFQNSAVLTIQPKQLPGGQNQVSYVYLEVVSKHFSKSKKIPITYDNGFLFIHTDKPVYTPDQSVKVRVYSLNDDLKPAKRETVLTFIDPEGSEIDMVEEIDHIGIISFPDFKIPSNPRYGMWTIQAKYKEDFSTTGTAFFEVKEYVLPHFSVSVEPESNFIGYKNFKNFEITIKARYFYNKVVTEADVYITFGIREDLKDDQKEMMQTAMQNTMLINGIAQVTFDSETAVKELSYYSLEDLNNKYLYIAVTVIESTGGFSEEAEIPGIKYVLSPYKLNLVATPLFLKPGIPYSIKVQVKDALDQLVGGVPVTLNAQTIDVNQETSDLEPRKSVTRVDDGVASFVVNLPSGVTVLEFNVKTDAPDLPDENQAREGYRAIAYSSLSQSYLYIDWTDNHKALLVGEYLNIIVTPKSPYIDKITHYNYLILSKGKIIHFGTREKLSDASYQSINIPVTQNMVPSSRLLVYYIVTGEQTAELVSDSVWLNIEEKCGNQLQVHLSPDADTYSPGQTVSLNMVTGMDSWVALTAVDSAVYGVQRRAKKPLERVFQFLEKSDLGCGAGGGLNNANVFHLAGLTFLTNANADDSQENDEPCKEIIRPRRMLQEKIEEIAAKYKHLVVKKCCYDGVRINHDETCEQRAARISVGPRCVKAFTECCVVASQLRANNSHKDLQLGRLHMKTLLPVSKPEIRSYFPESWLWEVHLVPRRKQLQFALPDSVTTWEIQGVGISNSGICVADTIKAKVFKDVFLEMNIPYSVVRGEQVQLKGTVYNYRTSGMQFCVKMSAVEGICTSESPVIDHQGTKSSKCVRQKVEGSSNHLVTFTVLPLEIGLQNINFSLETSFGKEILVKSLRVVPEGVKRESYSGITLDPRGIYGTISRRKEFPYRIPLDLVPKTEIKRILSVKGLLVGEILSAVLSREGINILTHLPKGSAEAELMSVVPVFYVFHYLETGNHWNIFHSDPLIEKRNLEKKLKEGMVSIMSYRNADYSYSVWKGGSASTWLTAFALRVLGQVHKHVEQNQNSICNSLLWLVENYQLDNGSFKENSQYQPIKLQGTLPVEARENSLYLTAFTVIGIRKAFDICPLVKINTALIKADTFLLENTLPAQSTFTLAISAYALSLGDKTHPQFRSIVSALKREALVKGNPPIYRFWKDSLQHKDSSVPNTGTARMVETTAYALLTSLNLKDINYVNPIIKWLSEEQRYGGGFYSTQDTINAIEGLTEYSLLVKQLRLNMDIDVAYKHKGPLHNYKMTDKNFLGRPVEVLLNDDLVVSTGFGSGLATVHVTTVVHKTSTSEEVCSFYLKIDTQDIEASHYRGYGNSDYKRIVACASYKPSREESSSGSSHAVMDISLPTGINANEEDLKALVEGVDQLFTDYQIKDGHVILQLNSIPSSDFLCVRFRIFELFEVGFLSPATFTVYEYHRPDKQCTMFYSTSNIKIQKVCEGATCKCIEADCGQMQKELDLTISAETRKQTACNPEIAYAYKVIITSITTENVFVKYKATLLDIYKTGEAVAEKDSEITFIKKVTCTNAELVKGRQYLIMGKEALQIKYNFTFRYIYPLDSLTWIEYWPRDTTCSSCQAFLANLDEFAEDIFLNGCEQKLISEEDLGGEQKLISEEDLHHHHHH


Key:
human C5 R885C-mmh [1] = target: T2, human C5 R885C-mmh (human, UniProt P01031 19-1676); assay: cell-based or functional assay
human C5 R885H-mmh [2] = target: T3, human C5 R885H-mmh (human, UniProt P01031 19-1676); assay: cell-based or functional assay
African green monkey C5 [3] = target: T4, African green monkey C5 (African green monkey); assay: cell-based or functional assay
monkey C5-mmh [4] = target: T1, monkey C5-mmh; assay: SPR (Biacore), mAb captured, dissociation of monkey C5 at pH7.4 vs pH6.0, 25°C
African green monkey C5 [5] = target: T4, African green monkey C5; assay: cell-based or functional assay; remark: listed apart in the source
human C5 [6] = target: T5, human C5 (human, UniProt P01031 19-1676); assay: SPR (Biacore), mAb captured, dissociation of human C5 at pH7.4 vs pH6.0, 37°C
T5 construct: native C5 purified from plasma (EMD) in the Biacore and Octet assays, C5 of normal human serum in the CDC and hemolysis assays; two chains (alpha and beta); also called hC5; complement factor 5
Summary of the method: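 Anti-C5 mAbs (human IgG4 Fc) captured on an amine-coupled mouse anti-human Fc surface; recombinant C5 dissociation followed by Biacore T200 in PBS-T (0.01M phosphate, 0.15M NaCl, 0.05% Tween-20) at pH7.4 or pH6.0. Dissociative half-life (t½) calculated from kd.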

human C5 [7] = target: T5, human C5; assay: cell-based or functional assay
Cynomolgus monkey C5 = Cynomolgus monkey C5 (cynomolgus monkey, UniProt A0A2K5U1T1 19-1676); assay: cell-based or functional assay
monkey C5-mmh [8] = target: T1, monkey C5-mmh; assay: SPR (Biacore), mAb captured, dissociation of monkey C5 at pH7.4 vs pH6.0, 37°C
human C5 R885C-mmh [9] = target: T2, human C5 R885C-mmh; assay: cell-based or functional assay; remark: listed apart in the source
human C5 R885H-mmh [10] = target: T3, human C5 R885H-mmh; assay: cell-based or functional assay; remark: listed apart in the source
African green monkey C5 [11] = target: T4, African green monkey C5; assay: cell-based or functional assay; remark: listed apart in the source
human C5 [12] = target: T5, human C5; assay: cell-based or functional assay; remark: listed apart in the source

Binder | t½ Ratio pH7.4/pH6.0 (monkey C5-mmh [4]) | AGM AP % Max Inhibition, hemolysis assay, 5% serum (African green monkey C5 [5]) [%] | AGM CP % Max Inhibition, hemolysis assay, 5% serum (African green monkey C5 [5]) [%] | AGM Serum AP IC50, hemolysis assay, 5% serum (African green monkey C5 [5]) [nM] | t½ Ratio pH7.4/pH6.0 (human C5 [6]) | Human AP % Max Inhibition, hemolysis assay, NHS (human C5 [7]) [%] | Human AP IC50, hemolysis assay, NHS (human C5 [7]) [nM] | Human CP % Max Inhibition, hemolysis assay, NHS (human C5 [7]) [%] | Human CP IC50, hemolysis assay, NHS (human C5 [7]) [nM] | Cyno AP % Max Inhibition, hemolysis assay, 5% serum (Cynomolgus monkey C5) [%] | Cyno CP % Max Inhibition, hemolysis assay, 5% serum (Cynomolgus monkey C5) [%] | Cyno Serum AP IC50, hemolysis assay, 5% serum (Cynomolgus monkey C5) [nM] | Cyno Serum CP IC50, hemolysis assay, 5% serum (Cynomolgus monkey C5) [nM] | t½ Ratio pH7.4/pH6.0 (monkey C5-mmh [8]) | IC50, inhibition of CDC of Daudi cells, C5 depleted human serum and 6.6 nM C5 Variant R885C (human C5 R885C-mmh [9]) [nM] | IC50, inhibition of CDC of Daudi cells, C5 depleted human serum and 6.6 nM C5 Variant R885H (human C5 R885H-mmh [10]) [nM] | IC50, inhibition of CDC of Daudi cells, 1.66% African Green monkey serum (African green monkey C5 [11]) [nM] | IC50, inhibition of CDC of Daudi cells, 1.66% human serum (human C5 [12]) [nM] | AGM Serum CP IC50, hemolysis assay, 5% serum (African green monkey C5 [5]) [nM] | other results
H4H12166P3 (antibody, human IgG4, V domains shown) VH: QVQLQESGPGLVKPSETLSLTCTVSGDSVSSSYWTWIRQPPGKGLEWIGYIYYSGSSNYNPSLKSRATISVDTSKNQFSLKLSSVTAADTAVYYCAREHNVDTTMIFDYWGQGTLVTVSS VL: AIQMTQSPSSLSASVGDRVTITCRASQGIRNDLGWYQQKPGKAPKLLIYAASSLQSGVPSRFAGRGSGTDFTLTISSLQPEDFATYYCLQDFNYPWTFGQGTKVEIK |  |  |  |  |  |  |  |  |  |  |  |  |  |  |  |  |  |  |  | IC50, inhibition of CDC of Daudi cells, C5 depleted human serum and 6.6 nM C5 Variant R885C, 30 nM anti-CD20 antibody (human C5 R885C-mmh [1]): 1.7 nM; IC50, inhibition of CDC of Daudi cells, C5 depleted human serum and 6.6 nM C5 Variant R885H, 7 nM anti-CD20 antibody (human C5 R885H-mmh [2]): 2.9 nM; IC50, inhibition of CDC of Daudi cells, 1.66% African Green monkey serum, 10 nM anti-CD20 antibody (African green monkey C5 [3]): > 30 nM; Max % Inhibition of CDC of Daudi cells, 1.66% African Green monkey serum, 10 nM anti-CD20 antibody (African green monkey C5 [3]): 64%
H4H12171P (antibody, human IgG4, V domains shown, H4H: human IgG4 Fc with S108P hinge mutation) VH: EVQLVESGGGVVRPGGSLRLSCAASGFTFDEYGMTWVRQVPGKGLEWVSGITWNGGFTDYTDSVKGRFTSSRDNAKNSLYLQMNSLRAEDTALYYCARDGYSSSWGAYDIWGQGTMVTVSS VL: DIQMTQSPSSLSASVGDRVTITCRASQSISTYLNWYQQKPGKAPKLLIYAASSLQSGVPLRFSGSGSGTDFTLTISSLQPEDFASYFCQQSYSTPYTFGQGTKLEIK | 2.1 | 69.7 | 17.8 | 23.3 | 3.7 | 42 | 15.5 | 94.9 | 2.33 | 98.8 | 92.9 | 7.2 | 8.7 | 4.7 | 0.65 | 1.6 | 3.3 | 1.9 |  | 
H4H12164P (antibody, human IgG4, V domains shown, H4H: human IgG4 Fc with S108P hinge mutation) VH: EVQLVESGGGLVRSGGSLRLSCAASGFTFNRYAMTWVRQAPGKGLEWVSAISGSGSSTYYTDSVKGRFTISRDNSKNSVDLQMHSLRVEDTAIYYCARGTTVTTGYGMDVWGQGTTVTVSS VL: DIQMTQSPSSLSASVGDRVTFTCQASQDITNSLNWYQQKPGRAPKLLIYDASYLKAGVPSRFSGSGSGTDFTFTISSLQPEDIATYYCQQYDDLPYTFGQGTKLEIK | 2.9 | 15.6 | 85.8 | 178 | ≤ 0.1 | 69.7 | 14.5 | 95.9 | 2.1 | 98.7 | 94.7 | 9.1 | 19.6 | 1.1 | 0.82 | 1.8 | 5.8 | 2.4 | 247 | 
H4H12175P (antibody, human IgG4, V domains shown, H4H: human IgG4 Fc with S108P hinge mutation) VH: EVQLVESGGGVVQPGGSLRLSCAASGFTFNDYAMHWVRQAPGKGLEWVSLISGDGGNTYYADSVKGRLTISRDNSKNSLYLQMNSLRTEDTALYYCAKDKGWNFGYFDLWGRGTLVTVSS VL: DIQMTQSPSSLSTSVGDRVTITCRASQNIDTYLNWYQQKPGKAPKLLIYDASSLQSGVPSRFSGSGSGTDFTLTITSLQPEDFATYYCQQNDNILHPLTFGGGTKVEIK | 3.6 | 17.4 | 84.5 | 98.5 | 0.9 | 80.2 | 20 | 98 | 2.36 | 98.1 | 96.7 | 8.05 | 10.9 | 0.4 | > 20 | 4.2 | 5.2 | 2.2 | 118 | 

Source: patent US20170355757A1 (Regeneron, published 2017)
